B1: wDRE (dsDNA)
DNA 1: AATTCAAAAGATATACTACCGACATGAGTT
DNA 2: AACTCATGTCGGTAGTATATCTTTTGAATT
B2: mDRE (dsDNA)
DNA 1: AATTCAAAAGATATACTACTTTTATGAGTT
DNA 2: AACTCATAAAAGTAGTATATCTTTTGAATT

Target: GST-RAP2.1 N-terminal 120 aa (AP2 DNA-binding domain) (UniProt Q8LC30 1-120)
Test: EMSA; 100 ng probe, 5 or 10 ug protein; EMSA as in cited ref 42; buffer, salt, pH and temperature not given; 100 ng probe with 5 or 10 ug protein
Settings: protein: recombinant; tags: GST (pGEX6P-1, N-terminal)

Sequence of GST-RAP2.1 N-terminal 120 aa (AP2 DNA-binding domain) (Q8LC30 1-120): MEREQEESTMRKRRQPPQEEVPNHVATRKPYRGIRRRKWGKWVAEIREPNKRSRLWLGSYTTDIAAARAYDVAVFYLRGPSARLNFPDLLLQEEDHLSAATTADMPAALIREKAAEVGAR

Row | Binder | binding result
1 | B1 | binds
2 | B2 | no binding

Source: article PMC2848764, “The Arabidopsis EAR-motif-containing protein RAP2.1 functions as an active transcriptional repressor to keep stress responses under tight control”
